Assays:
[1] = target: AAV8 capsid (adeno-associated virus serotype 8 capsid) (adeno-associated virus serotype 8 (AAV8)) (UniProt Q8JQF8); test: SEC-MALS; offline native SEC (AdvanceBio SEC 300 x 7.8 mm, 2.7 um, 500 A) with 20-angle MALS and DAD at 260 and 280 nm; 1:1 (v/v) mixture of empty and full AAV8 capsids; 200 mM ammonium acetate, 1.0 mL/min, 6 replicates; capsid dimer against capsid monomer by peak area
[2] = target: AAV8 capsid (adeno-associated virus serotype 8 capsid) (adeno-associated virus serotype 8 (AAV8)) (UniProt Q8JQF8); test: native MS; orbitrap-based charge detection-mass spectrometry (CD-MS) of nSEC fraction F2 (capsid dimers), infused by CE with sheath liquid interface at about 80 nL/min, 200 mM ammonium acetate, nano ESI, triplicates

## AAV8 capsid (adeno-associated virus serotype 8 capsid) (from UniProt Q8JQF8 1-738) (complex)
[1]
  % AAV8 capsid dimer (peak area, absorbance at 260 nm): 0.9%
  % AAV8 capsid dimer (peak area, absorbance at 280 nm): 1%
  stoichiometry N: 2
[2]
  % empty capsid dimers (CD-MS): 1%
  % filled capsid dimers (CD-MS): 3%
  stoichiometry N: 2

— paper PMC12333375
